The test addresses podoplanin on human brain tumor cells (glioblastoma and medulloblastoma cells and xenografts) (human) (UniProt Q86YL7). As to the kind of experiment: cell-based or functional assay.

The substance dsNZ-1-PE38KDEL immunotoxin (scFv) had an IC50 of cytotoxicity (inhibition of protein synthesis, 3H-leucine incorporation) of 0.5 to 6.9 ng/mL.

The record behind these values is US20150368353A1.
